T1: human high affinity trimeric IL-2 receptor (CD25/CD122/CD132) (human, UniProt P01589 22-272; P14784 27-551; P31785 23-369)
T1 sequence 1: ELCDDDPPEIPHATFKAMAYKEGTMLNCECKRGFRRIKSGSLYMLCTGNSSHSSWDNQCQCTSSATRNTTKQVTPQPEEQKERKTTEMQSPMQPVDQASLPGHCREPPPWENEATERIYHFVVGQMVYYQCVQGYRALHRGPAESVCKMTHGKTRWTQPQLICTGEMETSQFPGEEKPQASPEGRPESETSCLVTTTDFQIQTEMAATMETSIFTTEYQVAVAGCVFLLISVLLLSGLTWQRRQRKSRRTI
T1 sequence 2: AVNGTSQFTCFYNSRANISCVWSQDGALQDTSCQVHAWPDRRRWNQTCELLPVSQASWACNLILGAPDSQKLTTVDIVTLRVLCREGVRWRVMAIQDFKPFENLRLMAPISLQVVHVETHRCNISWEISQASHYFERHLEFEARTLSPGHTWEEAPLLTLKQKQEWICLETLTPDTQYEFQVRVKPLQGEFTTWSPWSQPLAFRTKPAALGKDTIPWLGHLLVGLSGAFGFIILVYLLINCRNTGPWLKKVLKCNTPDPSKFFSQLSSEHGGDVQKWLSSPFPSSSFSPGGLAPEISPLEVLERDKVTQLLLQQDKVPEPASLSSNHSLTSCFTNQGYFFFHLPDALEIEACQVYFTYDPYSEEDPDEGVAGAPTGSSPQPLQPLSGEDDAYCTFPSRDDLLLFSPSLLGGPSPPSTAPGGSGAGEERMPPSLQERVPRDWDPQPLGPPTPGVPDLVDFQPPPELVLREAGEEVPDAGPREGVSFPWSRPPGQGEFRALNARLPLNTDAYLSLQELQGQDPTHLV
T1 sequence 3: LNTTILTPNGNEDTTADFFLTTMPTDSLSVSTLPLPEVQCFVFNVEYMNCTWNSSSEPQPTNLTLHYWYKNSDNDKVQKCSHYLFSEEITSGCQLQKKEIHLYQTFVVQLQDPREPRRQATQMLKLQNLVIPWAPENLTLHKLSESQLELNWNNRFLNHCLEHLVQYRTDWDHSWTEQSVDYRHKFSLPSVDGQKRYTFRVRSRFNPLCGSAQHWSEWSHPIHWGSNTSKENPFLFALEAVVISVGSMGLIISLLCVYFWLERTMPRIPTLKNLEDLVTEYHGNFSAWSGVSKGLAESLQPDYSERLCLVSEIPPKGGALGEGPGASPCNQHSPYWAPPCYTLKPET


Molecular target: T1, human high affinity trimeric IL-2 …
Experiment: cell-based or functional assay

| Binder | pSTAT5 ratio YT CD25/YT, dilution factor 2, lower table | pSTAT5 ratio YT CD25/YT, dilution factor 4, lower table | pSTAT5 ratio YT CD25/YT, dilution factor 8, lower table | pSTAT5 ratio YT CD25/YT, dilution factor 16, lower table | pSTAT5 ratio YT CD25/YT, dilution factor 32, lower table | pSTAT5 ratio YT CD25/YT, dilution factor 64, lower table | pSTAT5 ratio YT CD25/YT, dilution factor 128, lower table |
| --- | --- | --- | --- | --- | --- | --- | --- |
| NEH (ligand) cytokine: APTSSSTKKTQLQLEHLNLDLEMILNGINNYKNPKLTRMLTFKFYMPKKATELKHLQCLEEELKPLEEVLNLAQSKNFHLRPRDLISNINVIVLELKGSETTFMCEYADETATIVEFLNRWITFCHSIISTLT | 0.9 | 1.1 | 1.8 | 2.6 | 5.1 | 7.9 | 11.9 |
| DEH (ligand) cytokine: APTSSSTKKTQLQLEHLDLDLEMILNGINNYKNPKLTRMLTFKFYMPKKATELKHLQCLEEELKPLEEVLNLAQSKNFHLRPRDLISNINVIVLELKGSETTFMCEYADETATIVEFLNRWITFCHSIISTLT | 0.9 | 2 | 4.2 | 7.5 | 8.2 | 10.6 | 9.9 |
| TEH (ligand) cytokine: APTSSSTKKTQLQLEHLTLDLEMILNGINNYKNPKLTRMLTFKFYMPKKATELKHLQCLEEELKPLEEVLNLAQSKNFHLRPRDLISNINVIVLELKGSETTFMCEYADETATIVEFLNRWITFCHSIISTLT | 0.5 | 0.6 | 0.9 | 1.3 | 1.9 | 3.3 | 5.2 |
| RGH (ligand) cytokine: APTSSSTKKTQLQLEHLRLDLGMILNGINNYKNPKLTRMLTFKFYMPKKATELKHLQCLEEELKPLEEVLNLAQSKNFHLRPRDLISNINVIVLELKGSETTFMCEYADETATIVEFLNRWITFCHSIISTLT | 0.6 | 0.8 | 1.1 | 2.1 | 3.4 | 5.5 | 6.9 |
| RAH (ligand) cytokine: APTSSSTKKTQLQLEHLRLDLAMILNGINNYKNPKLTRMLTFKFYMPKKATELKHLQCLEEELKPLEEVLNLAQSKNFHLRPRDLISNINVIVLELKGSETTFMCEYADETATIVEFLNRWITFCHSIISTLT | 0.6 | 0.7 | 0.8 | 1.2 | 1.4 | 2.3 | 3.7 |
| RLH (ligand) cytokine: APTSSSTKKTQLQLEHLRLDLLMILNGINNYKNPKLTRMLTFKFYMPKKATELKHLQCLEEELKPLEEVLNLAQSKNFHLRPRDLISNINVIVLELKGSETTFMCEYADETATIVEFLNRWITFCHSIISTLT | 0.8 | 1.1 | 1.5 | 2.5 | 3.3 | 4.9 | 6.7 |
| RMH (ligand) cytokine: APTSSSTKKTQLQLEHLRLDLMMILNGINNYKNPKLTRMLTFKFYMPKKATELKHLQCLEEELKPLEEVLNLAQSKNFHLRPRDLISNINVIVLELKGSETTFMCEYADETATIVEFLNRWITFCHSIISTLT | 0.6 | 0.8 | 1.1 | 1.4 | 2.3 | 3.9 | 5.1 |
| RFH (ligand) cytokine: APTSSSTKKTQLQLEHLRLDLFMILNGINNYKNPKLTRMLTFKFYMPKKATELKHLQCLEEELKPLEEVLNLAQSKNFHLRPRDLISNINVIVLELKGSETTFMCEYADETATIVEFLNRWITFCHSIISTLT | 0.7 | 0.8 | 1.3 | 2.5 | 4.3 | 7.4 | 10.6 |
| RWH (ligand) cytokine: APTSSSTKKTQLQLEHLRLDLWMILNGINNYKNPKLTRMLTFKFYMPKKATELKHLQCLEEELKPLEEVLNLAQSKNFHLRPRDLISNINVIVLELKGSETTFMCEYADETATIVEFLNRWITFCHSIISTLT | 0.8 | 0.8 | 1.2 | 2 | 3 | 5 | 9.1 |
| RKH (ligand) cytokine: APTSSSTKKTQLQLEHLRLDLKMILNGINNYKNPKLTRMLTFKFYMPKKATELKHLQCLEEELKPLEEVLNLAQSKNFHLRPRDLISNINVIVLELKGSETTFMCEYADETATIVEFLNRWITFCHSIISTLT | 1 | 1.1 | 1.8 | 3 | 5.5 | 8.1 | 11 |
| RSH (ligand) cytokine: APTSSSTKKTQLQLEHLRLDLSMILNGINNYKNPKLTRMLTFKFYMPKKATELKHLQCLEEELKPLEEVLNLAQSKNFHLRPRDLISNINVIVLELKGSETTFMCEYADETATIVEFLNRWITFCHSIISTLT | 1 | 0.9 | 1.1 | 1.8 | 2.8 | 5 | 6.8 |
| RVH (ligand) cytokine: APTSSSTKKTQLQLEHLRLDLVMILNGINNYKNPKLTRMLTFKFYMPKKATELKHLQCLEEELKPLEEVLNLAQSKNFHLRPRDLISNINVIVLELKGSETTFMCEYADETATIVEFLNRWITFCHSIISTLT | 0.9 | 0.9 | 1.4 | 1.9 | 3.3 | 5.3 | 8 |
| RIH (ligand) cytokine: APTSSSTKKTQLQLEHLRLDLIMILNGINNYKNPKLTRMLTFKFYMPKKATELKHLQCLEEELKPLEEVLNLAQSKNFHLRPRDLISNINVIVLELKGSETTFMCEYADETATIVEFLNRWITFCHSIISTLT | 1.1 | 1.5 | 2.4 | 3.8 | 6 | 8.4 | 11.5 |
